Measured values from article PMC3325275, “Molecular Mechanism Underlying the Interaction of Typical Sac10b Family Proteins with DNA” (PLoS ONE, 2012).

Key:
[1] = tested on: Mth10b I39R (Methanobacterium thermoautotrophicum ΔH); test: SPR; conditions: SPR (BIAcore 3000, SA chip): 20 mM Tris, 1 mM EDTA, 0.005% Tween20, pH 7.5, with 0, 0.1 or 0.3 M NaCl, 25°C
[2] = tested on: Mth10b N11K (Methanobacterium thermoautotrophicum ΔH); test: SPR; conditions: SPR (BIAcore 3000, SA chip): 20 mM Tris, 1 mM EDTA, 0.005% Tween20, pH 7.5, with 0, 0.1 or 0.3 M NaCl, 25°C
[3] = tested on: Mth10b N11KI39RT77R (Methanobacterium thermoautotrophicum ΔH); test: SPR; conditions: SPR (BIAcore 3000, SA chip): 20 mM Tris, 1 mM EDTA, 0.005% Tween20, pH 7.5, with 0, 0.1 or 0.3 M NaCl, 25°C
[4] = tested on: Mth10b T77R (Methanobacterium thermoautotrophicum ΔH); test: SPR; conditions: no NaCl; apparent KD; SPR (BIAcore 3000, SA chip): 20 mM Tris, 1 mM EDTA, 0.005% Tween20, pH 7.5, with 0, 0.1 or 0.3 M NaCl, 25°C
[5] = biological target: T1, Mth10b N11KI39RT77R N11K;I39R;T77R (Methanobacterium thermoautotrophicum ΔH) (UniProt O27527); test: SPR; conditions: SPR (BIAcore 3000, SA chip): 20 mM Tris, 1 mM EDTA, 0.005% Tween20, pH 7.5, with 0, 0.1 or 0.3 M NaCl, 25°C
T1 sequence: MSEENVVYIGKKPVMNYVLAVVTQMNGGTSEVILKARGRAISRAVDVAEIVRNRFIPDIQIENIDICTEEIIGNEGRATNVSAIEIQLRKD

[6] = biological target: T2, Mth10b T77R T77R (Methanobacterium thermoautotrophicum ΔH) (UniProt O27527); test: SPR; conditions: SPR (BIAcore 3000, SA chip): 20 mM Tris, 1 mM EDTA, 0.005% Tween20, pH 7.5, with 0, 0.1 or 0.3 M NaCl, 25°C
T2 sequence: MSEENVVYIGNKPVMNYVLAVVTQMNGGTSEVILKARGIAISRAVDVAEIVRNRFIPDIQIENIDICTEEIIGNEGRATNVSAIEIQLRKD

[7] = biological target: T3, Mth10b wild type (Methanobacterium thermoautotrophicum ΔH) (UniProt O27527); test: SPR; conditions: SPR (BIAcore 3000, SA chip): 20 mM Tris, 1 mM EDTA, 0.005% Tween20, pH 7.5, with 0, 0.1 or 0.3 M NaCl, 25°C
T3 sequence: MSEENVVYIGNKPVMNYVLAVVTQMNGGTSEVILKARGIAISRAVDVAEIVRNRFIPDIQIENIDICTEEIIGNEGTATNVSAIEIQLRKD

[8] = biological target: the molecule itself; test: crystal structure; purified Mth10b at ~10 mg/ml in 10 mM HEPES pH 7.2, 150 mM NaCl; hanging drop at 4°C over 0.1 M NaCl, 1.6 M (NH4)2SO4, 0.1 M HEPES pH 7.5; 2.2 Å; dimer formed about a crystallographic two-fold axis
[9] = 0.1 M NaCl, slight cooperativity

Work on 110 bp mth10b fragment yielded a Kd [1, 9] of 6.5 µM, a Kd ([1]; no NaCl, apparent KD) of 0.26 µM and a Kd ([2]; 0.1 M NaCl, marked cooperativity) of 30 µM. For the same molecule, the Kd ([2]; no NaCl, apparent KD) was 2.1 µM, the Kd [3, 9] was 0.7 µM and the fold decrease in affinity (fold lower affinity than in 0.1 M NaCl) ([3]; 0.3 M NaCl, high cooperativity) was 70. The Kd [4] was 16 µM.

For “GTGATGTCAGAGGAGAATGTAGTATACATCGGAAACAAGCCTGTAATGAACTATGTTCTGGCCGTGGTTACTCAGATGAACGGTGGGACCAGTGAAGTGATCCTTAAAGC (double strand) [110 bp mth10b fragment]”, the Kd [5] was 0.7 µM, the Kd [6] was 16 µM and the binding [7] was “no binding”.

B1: Mth10b from Methanobacterium thermoautotrophicum ΔH (natural protein, UniProt O27527 1-91, looked up)
chain: MSEENVVYIGNKPVMNYVLAVVTQMNGGTSEVILKARGIAISRAVDVAEIVRNRFIPDIQIENIDICTEEIIGNEGTATNVSAIEIQLRKD
notes: Mth10b, atypical Sac10b (Alba) family member of Methanobacterium thermoautotrophicum ΔH, gene mth10b (MTH1483); 91 residues in total, C-terminal residue Asp91; expressed from pET11a-mth10b; the structure model covers 86 of the 91 residues; also called wild type Mth10b; source: E. coli BL21 (DE3), purified
With B1 the “stoichiometry N” value [8] was 2.
